{
  "source": "patent US20210017264A1",
  "about": "(SHANGHAI YILE BIOTECHNOLOGY, published 2021)",
  "binders": {"B1": {"name": "anti-proBDNF monoclonal antibody 2B11 (antibody, human IgG1, kappa, V domains shown)", "VH": "EVKVVESGGGLVQPGGSLRLSCATSGFTFTDYYMSWVRQPPGKALEWLGFIRNKANGYTTEYSSSVKGRFTISRDNSQSILYLQMNTLRAEDSATYYCAITMDYWGQGTSVTVSS", "VL": "DIQMTQSPASLSASVGETVTITCRASGNIHNYLAWYQKKQGKSPHLLVYNAQTLADGVPSRFSGSASGTQYSLKIDSLQPEDFGSYYCQHFWSTPFTFGSGTKLEIKR", "notes": "also called murine monoclonal antibody 2B11; antibody secreted from clone 2B11"}},
  "molecular_target": "T1, human proBDNF protein (prokaryotically expressed, Example 1) (human, UniProt P23560 19-247)",
  "T1 construct": "Vector-derived residues or tags are not described; also called human proBDNF antigen; recombinant human proBDNF",
  "T1 sequence (looked up)": "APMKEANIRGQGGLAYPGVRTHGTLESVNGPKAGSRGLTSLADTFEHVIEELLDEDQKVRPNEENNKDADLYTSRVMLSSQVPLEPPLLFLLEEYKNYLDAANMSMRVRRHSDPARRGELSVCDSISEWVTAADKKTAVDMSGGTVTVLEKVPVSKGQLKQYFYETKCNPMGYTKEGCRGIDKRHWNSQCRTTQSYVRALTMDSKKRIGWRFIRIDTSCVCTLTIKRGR",
  "assay": "SPR, Biacore T200; human proBDNF coated directly on the chip (~500 RU); 2B11 injected at 10-160 nM, 25 C; 1:1 Langmuir model",
  "procedure": "Binding affinity of 2B11 against recombinant human proBDNF was measured by Surface Plasmon resonance (SPR) using Biacore T200™. 1×HBS-EP+ buffer was used as running buffer. Recombinant human proBDNF was directly coated on CMS biosensor chip to achieve approximately 500 response units (RU). For kinetics measurements, two-fold serial dilutions (10 nM to 160 nM) were injected at 25° C. with a flow rate of 30u1/min. Association rate (Kₐ) and dissociation rate (Kd) were calculated using a simple one to one Langmuir binding model (BIAcore Evaluation software version 3.2). The equilibrium dissociation constant (kD) was calculated as the ratio Kd/Kₐ. The binding affinity of 2B11 to human proBDNF is reported below: […]",
  "data": [
    {"binder": "B1", "values": [
      {"measurement": "Kd", "result": 4.04, "unit": "nM"},
      {"measurement": "koff", "result": 0.00116, "unit": "s⁻¹"},
      {"measurement": "kon", "result": 288000, "unit": "M⁻¹ s⁻¹"}
    ]}
  ]
}
